B1: ACSBG2 (parent)
chain: FAQADALKGTLVSTLKEVKPTVFI

Variants of: B1
Test: protein stability index of a GFP-peptide fusion (GPS, HEK-293T) (PSI 1-6); higher = more stable
Conditions: c terminus: a fixed tail appended
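Note: lentivirally expressed fusions sorted by FACS into six bins by GFP to DsRed ratio, PSI derived from sequencing read proportions per bin multiplied by bin number.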

Protein stability index of substitutions, site by site:
T14: H 2.27 | L 1.51 | F 2.64 | S 1.08 | P 1.23 | D 1.88 | N 2.26 | K 2.03 | E 1.26 | Q 1.95 | A 1.8 | I 2.22 | Y 3.04 | M 1.32
K8: S 1.71 | R 1.8 | N 1.59 | C 1.85 | P 1.4 | G 2.31 | M 1.22 | E 1.41 | T 3.3
V22: Q 2.28 | D 2.99 | R 2.94 | S 2.05 | I 2.43 | P 2.02 | G 2.25 | H 1.92 | F 1.67 | L 1.3 | E 1.94 | Y 1.67 | A 2.73 | T 2.77 | C 2.18
Q3: M 3.51 | E 1.74 | C 1.4 | W 2.13 | K 2.06 | S 1.28 | D 1.36 | R 2.92 | G 3.16 | T 1.8
V18: E 5.23 | L 1.04 | A 2.63 | I 2.48 | K 1.92 | M 1.44 | S 1.98 | P 1.74 | H 1.28 | N 2.43 | G 1.79 | Q 2.04 | D 1.68 | T 1.26
D5: H 1.3 | P 1.9 | Y 1.44 | R 1.55 | N 1.9 | M 2.98 | T 2.12 | C 1.35 | F 3.26 | S 2.67 | V 2.08 | A 3.35 | E 1.26 | I 2.7 | K 1.69 | Q 2.4
I24: M 1.16 | V 1.83 | C 2.92 | D 2.88 | T 2.36 | L 1.05 | W 1.26 | H 2.02 | S 2.27 | N 3.24 | A 1.98 | G 2.08 | F 4.5
G9: Y 1.78 | N 1.27 | T 1.38 | M 2.03 | D 1.59 | V 2.61 | R 2.76 | W 3.93 | Q 2.52 | F 2.24 | A 2.24 | C 2.73 | H 1.55 | P 2.01 | K 2.32 | I 4.73 | E 1.5 | L 2.72 | S 2.84
K16: R 1.45 | F 2.41 | V 2.8 | W 2.4 | A 1.97 | D 1.65 | P 2.41 | Q 1.56 | T 3.25 | H 2.75 | C 2.34
F23: A 1.96 | E 2.3 | I 1.65 | W 2.2 | H 1.75 | K 2.69 | P 2.76 | V 2.18 | T 1.73 | Q 2.16 | N 1.69 | M 1.86 | D 2.62 | R 2.64 | L 2.52
T10: M 2.76 | V 2.24 | S 1.55 | P 1.14 | A 2.04 | I 2.96 | C 1.81 | D 2.07 | K 1.98 | Y 3.48 | W 2.36 | Q 1.79 | R 2.62 | F 2.23 | H 2.91 | E 1.65
P20: V 1.91 | S 2.9 | L 3.23 | Y 2.68 | F 2.4 | R 2.28 | Q 2.13 | K 1.25 | G 2.47
E17: G 1.95 | N 3.2 | L 2.51 | T 3.12 | F 2.07 | P 1.83 | M 2.29 | S 1.81 | Q 1.73 | A 1.03 | R 1.99 | V 2.23 | C 2.06
F1: A 2.26 | P 2.31 | C 1.3 | M 2.14 | Q 3.73 | Y 1.96 | R 1.83 | L 2 | E 3.21 | H 1.98 | N 2.59 | K 2.25 | T 2.33 | G 2.46 | D 2.43 | S 2 | W 1.46 | V 1.54
A6: V 2.58 | G 1.57 | Q 1.54 | K 2.23 | Y 3.07 | R 1.67 | F 2.84 | T 2.21 | N 1.58 | D 1.71 | S 2.08 | E 1.95 | I 1.34 | P 1.69 | M 1.9
T21: N 1.92 | S 2.35 | P 1.22 | Q 1.32 | V 4.03 | D 1.82 | W 3.06 | G 2.14 | E 1.47 | M 1.82 | I 4.12 | R 2 | A 1.36 | H 1.61 | Y 1.64
V12: Q 1.52 | E 1.89 | I 2.26 | K 3.87 | C 1.76 | H 2.12 | M 1.66 | P 1.85 | L 1.25 | N 1.6 | R 2.08 | G 1.95 | D 1.81 | T 1.63
L7: I 1.86 | G 1.3 | E 2.5 | Q 2.11 | H 2.16 | K 2.37 | C 1.52 | R 2.07 | D 2.12 | F 3.08 | V 1.91 | M 2.73 | T 2.02 | P 2.05 | N 1.73 | A 2.1
K19: R 1.02 | M 3.1 | W 1.99 | D 2.26 | S 2.45 | P 2.84 | A 2.49 | Q 2.08 | E 1.48
A2: T 1.56 | D 2.11 | C 1.85 | K 2.49 | P 1.48 | I 1.22 | S 1.76 | H 2.08 | F 2.79 | L 2.46 | E 2.05 | Q 1.64 | R 1.42 | G 2.13
A4: S 1.69 | I 1.66 | P 3.08 | T 1.94 | C 2.52 | D 2.74 | F 2.18 | H 2.31 | N 2.14 | Q 1.44 | G 2.44 | K 2.03
L15: Y 1.78 | V 1.06 | G 1.4 | R 2.1 | W 1.66 | N 1.77 | F 1.77 | K 1.8 | D 2.19 | M 1.6 | A 2.51 | S 1.96 | E 2.39 | P 2 | H 1.93
L11: Q 2.88 | E 2.88 | G 1.51 | A 1.88 | S 1.61 | I 2.55 | T 2.78 | D 2.02 | R 2.13 | N 2.1 | F 1.7 | V 2.08 | C 1.72 | H 1.72 | M 2.41
S13: G 1.04 | R 1.46 | A 2.1 | H 1.84 | Y 3.19 | C 1.93 | K 3.44 | M 3.57 | N 2.01 | V 4.44 | I 2.4 | D 1.85 | E 1.27 | T 2.04 | F 2.53 | L 2.05 | P 1.41

From the supplement of paper PMC10567573
